Data taken from patent US20240075139A1.
Substitutions are numbered along the chain they refer to.

Molecular target: EBOV Mayinga (GenBank: NC_002549) (Zaire Ebolavirus (EBOV Mayinga)) (UniProt Q05320)
Assay: cell-based or functional assay

Chain of UniProt Q05320 (Q05320 33-676 limits assumed): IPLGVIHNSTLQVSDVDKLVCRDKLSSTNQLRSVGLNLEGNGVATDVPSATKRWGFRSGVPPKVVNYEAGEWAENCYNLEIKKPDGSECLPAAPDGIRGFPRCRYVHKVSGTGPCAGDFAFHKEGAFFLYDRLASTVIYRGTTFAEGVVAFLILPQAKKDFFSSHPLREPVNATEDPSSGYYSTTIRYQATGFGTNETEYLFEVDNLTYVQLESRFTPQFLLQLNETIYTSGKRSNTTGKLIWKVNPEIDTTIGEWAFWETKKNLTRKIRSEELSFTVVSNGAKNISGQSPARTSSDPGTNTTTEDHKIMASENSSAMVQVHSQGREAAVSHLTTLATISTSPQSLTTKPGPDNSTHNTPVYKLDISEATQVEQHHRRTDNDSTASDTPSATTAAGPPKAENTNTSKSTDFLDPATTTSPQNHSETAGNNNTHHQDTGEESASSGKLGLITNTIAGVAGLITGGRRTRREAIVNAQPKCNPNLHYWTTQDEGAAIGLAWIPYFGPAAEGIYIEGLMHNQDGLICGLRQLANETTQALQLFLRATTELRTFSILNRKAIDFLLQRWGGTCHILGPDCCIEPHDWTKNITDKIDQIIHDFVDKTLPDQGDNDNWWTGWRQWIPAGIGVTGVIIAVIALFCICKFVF

B1: 5T0465 (antibody, V domains shown)
VH: QVQLVQSGAEVREPGASVRISCKASGYTFTSASIHWVRQAPGQGLEWMGIIDPVVGKTRSERKFNGRLIMTRDTPTSTVYMELNSLRSDDTAMYYCARSGYYPRGMDVWGQGTTVTVSS
VL: SYELTQPPSVSVSPGQTASITCSGDKLGDEYVSWYQQKPGQSPVLVISRDTRRSSGIPERFSGSNSGNTATLTISGTQAMDEADYYCQAWDSSTAVVFGGGTKLTVL
neutralization concentration (GMC, CPE reduction on Vero C1008 cells): 0.66 µg/mL

B2: 4T0764 (antibody, V domains shown)
VH: QVQLQESGPGLVEPSETLSLTCTVSGASISSLFWSWIRQPPGKGLEWIGYIHSDGSTNYNPFLKSRVTISIDTSQNQFSLRLTSVTAADTAVYFCARGLLGSQDSWGQGTLVTVSS
VL: QSALTQPASVSGSPGQSITISCTGTSSDVGGYNYVSWYQQYPGKAPKLVIYEVTNRPSGVSNRFSGSKSGNTASLTISGLRAEDEADYHCSSYRTRNTHVIFGGGTKLTVL
neutralization concentration (GMC, CPE reduction on Vero C1008 cells): 0.88 µg/mL

B3: 3T0650 (antibody, V domains shown)
VH: EVQLVQSGGGLVKPGGSLRLSCAASGFTFSNAWMNWVRQAPGKGLEWIGRVKSQTDRGTKDYAAPVKGRFSISRDDSKKMLYLQMNSLKIEDTGVYYCVATPHSWSVAWGQGTLVTVSS
VL: QSVLTQPPSVSGAPGQRVTISCTGSSSNIGAGYDVQWYQQFPGTAPKLLIYGNINRPSGVPDRFSGSKSGSSASLAITRLQAEDEADYYCQSYDSSLRDQWVFGGGTKLTVL
neutralization concentration (GMC, CPE reduction on Vero C1008 cells): 0.74 µg/mL

B4: 1T0227 (antibody, V domains shown)
VH: EVQLVESGGGLVKPGGSLRLSCAASGFTFRNAWMNWVRQAPGKGLEWVGRIKSRADGGPTDYAAPVKGRFTISRDDSKNTLYLQMNSLKSEDTAVYYCTTHVPDYNSAYYWVYWGQGTLVTVSS
VL: QSVLTQPPSVSGAPGQRVTISCTGSSSNIGAGYDVYWYQQLPGTAPKLIIYGNNNRPSGVPDRFSASKSGPSASLAITGLQAEDEADYYCQSYDIRLSDNYVFGTGTKVTVL
neutralization concentration (GMC, CPE reduction on Vero C1008 cells): 1.86 µg/mL

B5: 1T0455 (antibody, V domains shown)
VH: EVQLVESGGGLVKPGESLRLSCAVSGLTFSNAWMNWVRQAPGKGLEWVGRIKSKSDGGAADYAAPVNARFTISRDDSKKTLYLQMNSLKTEDTGFYYCTTLYHSGQGTLVTVSS
VL: QSVLTQPPSVSGAPGQRVTISCTGSSSNIGAGYDVHWYQQLPGTAPKFVIYGNNNRPSGVPDRFSGSKSGTSASLAITGLQVEDEGDYYCQSYDSRLSDHVVFGGGTKLTVL
neutralization concentration (GMC, CPE reduction on Vero C1008 cells): 1.77 µg/mL

B6: 3T0611 (antibody, V domains shown)
VH: EVQLVESGGNLVQPGGSLRLSCAASGFTFRSYSMNWVRQAPGKGLEWVSYISSSASIIHYAESVQGRFTISRDNAKNSLFLQMNSLRAEDTAVYYCAGILDDYRDYGYDYWGQGTLVTVSS
VL: SYELTQPPSVSVSPGQTARITCSGDALPKQYAYWYQQRPGQAPVLVIYKDIERPSGIPERYSGSSSGAIVTLTISGAQAEDEADYYCQSSDNNGSYRVMFGGGTKLTVL
neutralization concentration (GMC, CPE reduction on Vero C1008 cells): 0.78 µg/mL

B7: 4T0784 (antibody, V domains shown)
VH: QVQLVESGGGVVQPGRSLRLSCAASGFTFSTYGVHWVRQAPGKGLEWVGVIWYDGSKKYYADSVKGRFTISRDNSKNTLYLQMNSLRAEDAAVYRCVRGGDLLLLPDSIDYYGMDVWGQGTLVTVSS
VL: KDHDPQAPVSLSASVGDRVTITCRASQGIRNDLGWYQQKPGKAPKRLIYAASSLQSGVPSRFSGSGSGTEFTLTISSLQPEDFATYYCLQHNTYPFSFGPGTKVDIK
neutralization concentration (GMC, CPE reduction on Vero C1008 cells): 1.86 µg/mL

B8: 4T0243 (antibody, V domains shown)
VH: QVQLQESGPGLVKPSETLSLTCTVSGGSLSTYYWNWIRQPPGKGLEWIGYIYYSSLPKYSPTLKSRITISVDTSKNQFSLKLSSVTAADTAVYYCARAPRGYSSGKYNYYGLDVWSQGTTVTVSS
VL: SYELTQPPSVSVSPGHTATITCSGDALSKQFAYWYQQKPGQAPVLVISKDTERPSGIPGRFSGSSSGPTATLTISGVQAEDEADYYCQSADSSGGYYVFGSGTRVTVL
neutralization concentration (GMC, CPE reduction on Vero C1008 cells): 0.011 µg/mL

B9: 3T0202 (antibody, V domains shown)
VH: EVQLVESGGGLVQPGGSLRLSCAASGFKFRSYDMHWVRQRSGEGLEWVAAIGTAADTYYLGSVRGRFTISRENAKNSLYLQMDSLGAGDTAVYYCARAAFGAVFFDYWGQGTLVTVSS
VL: EIVLTQSPGTLSLSSGERATLSCRASQSISSSYLVWYQQKLGQAPRLLIYGASRRATGIPDRFSGSGSGTDFTLTISRLEPEDFAVYYCQQYGNSPITFGQGTRLEIK
neutralization concentration (GMC, CPE reduction on Vero C1008 cells): 0.53 µg/mL

B10: 4T0444 (antibody, V domains shown)
VH: EVQLVVSGGGLVQPGGSLRLSCAASGFTLKSYDIHWVRQRPGEGLEWVAAIGAAGDTYFSGSVKGRFTISRENARNSLYLQMNSLGAGDTAIYYCARARFGDLALDYWGQGILVTVSS
VL: EIVLTQSPGTLSLSPGERATLSCRSSQSVSSNSLAWYQQKPGQAPRLLIYGASSRAAGIPDRFSGSGSGTDFTLTISRLQPEDFAVFFCHQYSSSPLTFGGGTKVEIK
neutralization concentration (GMC, CPE reduction on Vero C1008 cells): 1.2 µg/mL

B11: 3T0253 (antibody)
heavy: EVQLVESGGGLVKPGRSLRISCAASGITFNKAWMNWVRLAPGKGLEWVGRIKSNGDGGKRDYAAPVTGRFTISRDDSKNTLYLQMNSLKTEDTAVYFRTTRHHRGMDVWGQGTTVTVSS
light: QSVLTQPPSVSGAPGQRVTISCTGSSSNIGAGYDVHWYQHLPGAAPKLLIYGDGSRPSGVPDRFSASKSGTSASLAITGLQAEDEADYYCQSYDSSLSDAVVFGGGTKLTVL
neutralization concentration (GMC, CPE reduction on Vero C1008 cells): 1.31 µg/mL

B12: 3T0673 (antibody, V domains shown)
VH: EVQLVESGGGRVKPGGSLRVSCAVSGITFTNAWMTWVRQAPGKGLEWLGRIKSRSDGGQSDLIAPVKGRFTISRDDSKNILYLQMNNLKTEDTGLYFCTTYYYDNGGSYSNPWGLGTLVTVSS
VL: QSVLTQPPSVSGAPGQRVTISCTGSYSNIGAGYDVLWYQQLPGTAPKLLIYGNNKRPSGVPDRFSGSKSGTSASLAITGLQAEDEADYYCQSYDSRLRDFGIFGGGTKLTVL
neutralization concentration (GMC, CPE reduction on Vero C1008 cells): 0.53 µg/mL

B13: 5T0451 (antibody, V domains shown)
VH: EVQLVESGGGLVKPGGSLRLSCAASGFTFTNAWMNWVRQAPGKGLEWIGRIKSKGDGGTADHAAPVRGRFIISRDDSKQMLYLQMTGLKSDDTAVYYCTRGPYDNFSGWRDYWGQGTLVTVSS
VL: B12 VL with Y26G, L36Q, L41H, L48V, D87H, S95A, F100S, G101W, I102V, K108Q
neutralization concentration (GMC, CPE reduction on Vero C1008 cells): 1.05 µg/mL

B14: 4T0452 (antibody, V domains shown)
VH: EVQLVESGGGLVKPGGSLRISCAASGFSFSNAWMNWVRQAPGKGLEWVGRIKSVSDGGPIHYAAPVKGRFTISRDDSKKMLYLQMNSLKVDDTAVYYCATEPRGYDWGWGQGTLVTVSS
VL: B3 VL with S26Y, Q36Y, I54T, K68R, S71T, R79G, D87H, S96R, Q100N, F103L
neutralization concentration (GMC, CPE reduction on Vero C1008 cells): 0.88 µg/mL

B15: 3T0338 (antibody, V domains shown)
VH: EVQLVESGGALVKPGGSLRLSCAASGFSFKTAWMNWVRQAPGKGLEWVGRIKSRADGGTSDYSASVKGRFTFSRDDSKNTLYLQMTSLKTEDTGMYYCTTLNLGGGFPGEWRSVWGQGTTVTVSS
VL: B12 VL with A31S, T44A, K55N, G79E, A86G, F100S, G101W, I102V, K108R
neutralization concentration (GMC, CPE reduction on Vero C1008 cells): 1.06 µg/mL

B16: 5T0209 (antibody, V domains shown)
VH: EVQLVDSGGGLVKPGGSLRLSCAASGFTFSKAWMSWVRQAPGKGLEWVGRIKSRTDGGTTDYAAPVRGRFTISRDDSKNTLFLQMNSLKPEDTAIYYCATDYYESRGYWGQGTLVTVSS
VL: B12 VL with Y26S, L36N, L41I, A73V, R98S, F100H, G101W, I102V
neutralization concentration (GMC, CPE reduction on Vero C1008 cells): 1.77 µg/mL

B17: 5T0278 (antibody, V domains shown)
VH: EVQLVESGGGLVKPGGSLRVSCAASGFPFTDAWMSWVRQAPGKGLEWVGRIKSNSDGGIPDYAAPVKGRFTISRDDSKRTLYLQMNSLKTEDTGYYYCYTLRFFGPGNSWGQGTLVTVSS
VL: B12 VL with V18I, L36S, Y38H, T44K, K55N, A76T, S95A, F100Q, G101V, I102V
neutralization concentration (GMC, CPE reduction on Vero C1008 cells): 0.63 µg/mL

B18: 3T0478 (antibody, V domains shown)
VH: VQLLQESGPGLVKPSETLSLTCTVSGGSISSYYWNWIRQSPGKGLEWMGYIYYTGSTNYNPSLKSRVTISVDLSKNQFSLKLRSVTAADTAVYYCARDKRYYDSSGYSHFDYWGQGILVTVSS
VL: QSVLTQPPSASGTPGQRVTIFCSGSSFNIGSNYVYWYQQLPGTAPKLLIYRNNERPSGVPDRFSGSKSGTSASLDISGLRSEDEADYSCAAWDGSLSGPVFGGGTKLTVL
neutralization concentration (GMC, CPE reduction on Vero C1008 cells): 0.78 µg/mL

B19: 3T0331 (antibody, V domains shown)
VH: EVQLLESGGGLVQPGGSLRLSCEASGFPLRDYAMSWVRQAPGRGLQWVSTIGGNDNAANYADSVKGRFTVSRDNSKSTIYLQMNSLRAEDTALYFCAKSVRLSRPSPFDLWGQGSLVTVSS
VL: EIVLTQSPATLSLSPGERATLSCRASQSVSTYLAWYQHQPGQAPRLLIYEASNRATGIPARFSGSGSGTEFTLTISSLEPEDVAVYYCQQRASWPLTFGGGTKVEIK
neutralization concentration (GMC, CPE reduction on Vero C1008 cells): 0.011 µg/mL

B20: 3T0553 (antibody, V domains shown)
VH: QVQLVESGGGVVQPGRSLRLSCAASGFTFTTCAMHWVRQAPGKGLEWVSVMWYDGSREYYADSVKGRFTISRDNSKNTLYLEMQSLRAEDTAVYYCARGGDLLVEVDSTDYYGLDVWGQGTTVTVSS
VL: DIQMTQSPSAMSASVGDRVTITCRASQGISHSLAWFQQKPGKVPKRLIYSASTLQSGVPSRFSGSGSGTEFTLTISSLQPEDFATYYCLQHNRYPWTFGQGTKVEIK
neutralization concentration (GMC, CPE reduction on Vero C1008 cells): 1.31 µg/mL

B21: 3T0245 (antibody, V domains shown)
VH: EVQLVESGGDLVKPGGSLRLSCEASGFTFTNAWMNWVRQSPGKGLEWIGRVKSKSDGGAADYAAPVKGRFTISRDDSKNSVFLQMRSLKPEDTGVYYCATRVHYNGMDVWGRGTTVTVSS
VL: QSVLTQPPSVSGAPGQRVTISCAGSGSNIGAGYDVHWYQQLPGTAPKLLIYANHNRPSGVPDRFSGSKSGSSASLAITGLQAEDEADYYCQSYDSSLRDACVFGGGTKLTV
neutralization concentration (GMC, CPE reduction on Vero C1008 cells): 0.63 µg/mL
